According to patent US20050208021:

Experiments:
[1] = test system: T1, PhiC31 integrase mutant 1C1 (Bacteriophage Phi-C31); assay: cell_activity; settings: attB donor integration into 293 genome
T1 sequence: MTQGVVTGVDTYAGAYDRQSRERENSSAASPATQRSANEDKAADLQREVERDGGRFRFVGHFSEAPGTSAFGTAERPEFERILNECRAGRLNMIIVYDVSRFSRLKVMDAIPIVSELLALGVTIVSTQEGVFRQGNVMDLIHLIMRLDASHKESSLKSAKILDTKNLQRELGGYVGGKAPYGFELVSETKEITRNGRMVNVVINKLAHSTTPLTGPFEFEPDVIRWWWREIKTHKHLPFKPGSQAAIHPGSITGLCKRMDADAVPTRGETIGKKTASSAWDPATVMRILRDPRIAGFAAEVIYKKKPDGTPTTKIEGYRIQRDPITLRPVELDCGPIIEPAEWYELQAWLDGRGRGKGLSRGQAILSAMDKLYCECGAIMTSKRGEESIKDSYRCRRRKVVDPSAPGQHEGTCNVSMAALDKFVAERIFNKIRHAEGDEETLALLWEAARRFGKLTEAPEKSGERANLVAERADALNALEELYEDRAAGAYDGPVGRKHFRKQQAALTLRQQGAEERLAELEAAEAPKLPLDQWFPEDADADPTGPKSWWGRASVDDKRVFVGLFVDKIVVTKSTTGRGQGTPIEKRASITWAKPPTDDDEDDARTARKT

[2] = test system: T2, PhiC31 integrase wild type (Bacteriophage Phi-C31); assay: cell_activity
T2 sequence: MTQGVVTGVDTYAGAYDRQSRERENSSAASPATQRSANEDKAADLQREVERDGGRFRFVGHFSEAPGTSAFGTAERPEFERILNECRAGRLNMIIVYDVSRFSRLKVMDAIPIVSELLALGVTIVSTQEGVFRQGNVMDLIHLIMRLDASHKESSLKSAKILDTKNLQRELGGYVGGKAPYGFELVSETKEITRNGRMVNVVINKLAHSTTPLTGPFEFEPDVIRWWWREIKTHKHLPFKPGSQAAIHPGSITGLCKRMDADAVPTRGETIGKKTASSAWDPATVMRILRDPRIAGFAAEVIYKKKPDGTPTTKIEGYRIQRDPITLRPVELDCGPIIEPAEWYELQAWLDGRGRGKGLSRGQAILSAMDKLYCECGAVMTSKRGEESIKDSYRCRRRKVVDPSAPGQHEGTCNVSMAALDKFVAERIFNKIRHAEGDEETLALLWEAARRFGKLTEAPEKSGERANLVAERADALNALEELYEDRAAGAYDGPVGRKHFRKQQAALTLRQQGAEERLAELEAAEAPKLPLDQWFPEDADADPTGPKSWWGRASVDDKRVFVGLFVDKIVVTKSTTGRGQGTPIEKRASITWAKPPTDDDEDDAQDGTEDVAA

**Q.** Which activity (fold over background colonies) [1] does the source give for “CGATGTAGGTCACGGTCTCGAAGCCGCGGTGCGGGTGCCAGGGCGTGCCCTTGGGCTCCCCGGGCGCGTACTCCACCTCACCCATCTGGTCCATCATGATGAACGGGTCGAGGTGGCGGTAGTTGATCCCGGCGAACGCGCGGCGCACCGGGAAGCCCTCGCCCTCGAAACCGCTGGGCGCGGTGGTCACGGTGAGCACGGGACGTGCGACGGCGTCGGCGGGTGCGGATACGCGGGGCAGCGTCAGCGGGTTCTCGACGGTCACGGCGGGCATGTCGA (double strand) [PhiC31 attB full length]” here?
**A.** > 10

**Q.** For PhiC31 attB/attP in pBCPB+, which activity (% white colonies) ([2]; Drosophila S2 cells, +/-11.7, background 1.7) is on record?
**A.** 47.8

**Q.** For mouse pseudo attP mpsL1, which activity (% haploid genomes integrated) ([2]; mouse liver, partner attB, qPCR, +/-0.89) is on record?
**A.** 1.8
